System: Escherichia coli TOP10
Test: shrunken log2 fold change of peptide-encoding DNA abundance (4.5 h post-induction vs induction); higher = less antimicrobial activity (less host growth inhibition)
Conditions: time post-induction: 4.5 h; library: site-saturation at positions 5, 18, 19, 20
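Also: peptides expressed intracellularly from a pBAD plasmid library in pooled LB shake-flask culture, induced with 0.3% L-arabinose, DNA abundance read by NGS, three biological replicates, DESeq2 with apeglm shrinkage.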

| Sequence | shrunken log2 fold change |
| --- | --- |
| RRIRNRPPRLPRPRPRPQDAPRP | -0.131 |
| RRIRGRPPRLPRPRPRPGCLPRP | 1.01 |
| RRIRVRPPRLPRPRPRPWSHPRP | -0.125 |
| RRIRHRPPRLPRPRPRPNTMPRP | -0.905 |
| RRIRRRPPRLPRPRPRPLSIPRP | -0.288 |
| RRIRHRPPRLPRPRPRPIMWPRP | -0.0163 |
| RRIRTRPPRLPRPRPRPPHEPRP | 0.373 |
| RRIRQRPPRLPRPRPRPANQPRP | -0.091 |
| RRIRWRPPRLPRPRPRPRCMPRP | 0.204 |
| RRIRTRPPRLPRPRPRPFKTPRP | 0.0238 |
| RRIRTRPPRLPRPRPRPVFDPRP | -0.226 |
| RRIRCRPPRLPRPRPRPSNGPRP | -0.113 |
| RRIRYRPPRLPRPRPRPSGSPRP | -0.0607 |
| RRIRGRPPRLPRPRPRPNWQPRP | 0.0611 |
| RRIRLRPPRLPRPRPRPLQLPRP | 0.267 |
| RRIRSRPPRLPRPRPRPNMRPRP | 0.43 |
| RRIRARPPRLPRPRPRPGCEPRP | 1.1 |
| RRIRFRPPRLPRPRPRPVYIPRP | -1.22 |
| RRIRQRPPRLPRPRPRPERTPRP | 0.124 |
| RRIRSRPPRLPRPRPRPQGNPRP | -0.679 |
| RRIRDRPPRLPRPRPRPWQLPRP | 0.0822 |
| RRIRTRPPRLPRPRPRPPCKPRP | -0.193 |
| RRIRVRPPRLPRPRPRPSQHPRP | -0.39 |
| RRIRSRPPRLPRPRPRPCIYPRP | -0.847 |
| RRIRRRPPRLPRPRPRPTWIPRP | 0.53 |

| Sequence | shrunken log2 fold change |
| --- | --- |
| RRIRIRPPRLPRPRPRPHPEPRP | -0.023 |
| RRIRCRPPRLPRPRPRPWGLPRP | -0.268 |
| RRIRQRPPRLPRPRPRPIDMPRP | 0.00643 |
| RRIRNRPPRLPRPRPRPNWHPRP | -0.111 |
| RRIRGRPPRLPRPRPRPCIIPRP | 0.191 |
| RRIRSRPPRLPRPRPRPAVCPRP | 0.185 |
| RRIRERPPRLPRPRPRPYCVPRP | -0.165 |
| RRIRSRPPRLPRPRPRPKAYPRP | -0.0451 |
| RRIRHRPPRLPRPRPRPMWAPRP | -0.0936 |
| RRIRNRPPRLPRPRPRPSRPPRP | 0.112 |
| RRIRNRPPRLPRPRPRPRIVPRP | -0.191 |
| RRIRERPPRLPRPRPRPAREPRP | 0.0588 |
| RRIRPRPPRLPRPRPRPTTAPRP | 0.0804 |
| RRIRQRPPRLPRPRPRPDDSPRP | -0.139 |
| RRIRYRPPRLPRPRPRPWIVPRP | -0.219 |
| RRIRMRPPRLPRPRPRPPGEPRP | 1.47 |
| RRIRFRPPRLPRPRPRPAWDPRP | 0.0926 |
| RRIRHRPPRLPRPRPRPVMYPRP | -1.29 |
| RRIRIRPPRLPRPRPRPAIQPRP | -0.143 |
| RRIRGRPPRLPRPRPRPCMIPRP | 0.235 |
| RRIRVRPPRLPRPRPRPTLCPRP | 0.0223 |
| RRIRERPPRLPRPRPRPQNLPRP | -0.375 |
| RRIRGRPPRLPRPRPRPHWNPRP | -0.017 |
| RRIRMRPPRLPRPRPRPTVSPRP | 0.0176 |
| RRIRSRPPRLPRPRPRPATTPRP | 0.584 |

| Sequence | shrunken log2 fold change |
| --- | --- |
| RRIRIRPPRLPRPRPRPVRSPRP | 0.373 |
| RRIRTRPPRLPRPRPRPMHRPRP | -0.142 |
| RRIRWRPPRLPRPRPRPVAQPRP | 0.386 |
| RRIRLRPPRLPRPRPRPLTNPRP | -0.325 |
| RRIRRRPPRLPRPRPRPVLSPRP | 0.0336 |
| RRIRARPPRLPRPRPRPLTDPRP | 0.163 |
| RRIRSRPPRLPRPRPRPGASPRP | 0.418 |
| RRIRERPPRLPRPRPRPFYYPRP | -0.618 |
| RRIRQRPPRLPRPRPRPYFNPRP | -0.82 |
| RRIRWRPPRLPRPRPRPEWDPRP | 1.22 |
| RRIRQRPPRLPRPRPRPPGLPRP | 0.127 |
| RRIRPRPPRLPRPRPRPECGPRP | 0.525 |
| RRIRMRPPRLPRPRPRPFQYPRP | 0.00421 |
| RRIRLRPPRLPRPRPRPKFSPRP | -0.0419 |
| RRIRMRPPRLPRPRPRPCDFPRP | -0.121 |
| RRIRDRPPRLPRPRPRPMKIPRP | -0.0804 |
| RRIRKRPPRLPRPRPRPGISPRP | 0.249 |
| RRIRVRPPRLPRPRPRPSEQPRP | -0.0241 |
| RRIRVRPPRLPRPRPRPHRMPRP | -0.457 |
| RRIRTRPPRLPRPRPRPGHDPRP | -0.108 |
| RRIRSRPPRLPRPRPRPHGAPRP | 0.104 |
| RRIRCRPPRLPRPRPRPAIIPRP | -0.786 |
| RRIRKRPPRLPRPRPRPPSTPRP | 0.661 |
| RRIRLRPPRLPRPRPRPCMEPRP | 0.115 |
| RRIRNRPPRLPRPRPRPCECPRP | 0.0219 |

| Sequence | shrunken log2 fold change |
| --- | --- |
| RRIRERPPRLPRPRPRPWDRPRP | -0.146 |
| RRIRGRPPRLPRPRPRPQNCPRP | 0.0394 |
| RRIRDRPPRLPRPRPRPWFVPRP | -0.18 |
| RRIRMRPPRLPRPRPRPCMWPRP | 0.138 |
| RRIRERPPRLPRPRPRPYPKPRP | -0.405 |
| RRIRHRPPRLPRPRPRPRPEPRP | -0.165 |
| RRIRVRPPRLPRPRPRPWQIPRP | 0.00686 |
| RRIRCRPPRLPRPRPRPDVLPRP | -0.489 |
| RRIRKRPPRLPRPRPRPQGTPRP | -0.0539 |
| RRIRGRPPRLPRPRPRPLYMPRP | 0.185 |
| RRIRTRPPRLPRPRPRPHADPRP | 0.0427 |
| RRIRWRPPRLPRPRPRPDPKPRP | -0.0134 |
| RRIRGRPPRLPRPRPRPYIRPRP | -0.111 |
| RRIRGRPPRLPRPRPRPCKYPRP | -0.533 |
| RRIRTRPPRLPRPRPRPFTQPRP | -0.487 |
| RRIRLRPPRLPRPRPRPNAQPRP | -0.0471 |
| RRIRHRPPRLPRPRPRPKAHPRP | -0.145 |
| RRIRNRPPRLPRPRPRPHGCPRP | -0.0193 |
| RRIRERPPRLPRPRPRPCGYPRP | -0.239 |
| RRIRWRPPRLPRPRPRPDSEPRP | 1.48 |
| RRIRWRPPRLPRPRPRPLPTPRP | 0.463 |
| RRIRPRPPRLPRPRPRPKNQPRP | -0.108 |
| RRIRSRPPRLPRPRPRPCFMPRP | 0.914 |
| RRIRNRPPRLPRPRPRPSWNPRP | -0.191 |
| RRIRLRPPRLPRPRPRPRMKPRP | -0.00259 |

| Sequence | shrunken log2 fold change |
| --- | --- |
| RRIRCRPPRLPRPRPRPPLRPRP | 0.35 |
| RRIRFRPPRLPRPRPRPANCPRP | -0.211 |
| RRIRYRPPRLPRPRPRPSASPRP | -0.071 |
| RRIRQRPPRLPRPRPRPYLIPRP | -0.89 |
| RRIRSRPPRLPRPRPRPKQNPRP | 0.0535 |
| RRIRQRPPRLPRPRPRPECQPRP | -0.0746 |
| RRIRYRPPRLPRPRPRPRRFPRP | 0.256 |
| RRIRVRPPRLPRPRPRPLPIPRP | -0.398 |
| RRIRYRPPRLPRPRPRPLHAPRP | 0.000596 |
| RRIRRRPPRLPRPRPRPEIWPRP | 0.621 |
| RRIRDRPPRLPRPRPRPVELPRP | -0.0194 |
| RRIRIRPPRLPRPRPRPHAHPRP | -0.554 |
| RRIRMRPPRLPRPRPRPWNRPRP | -0.51 |
| RRIRTRPPRLPRPRPRPPYSPRP | -0.135 |
| RRIRERPPRLPRPRPRPTEIPRP | 0.135 |
| RRIRVRPPRLPRPRPRPQIYPRP | -0.251 |
| RRIRMRPPRLPRPRPRPVRRPRP | 0.447 |
| RRIRFRPPRLPRPRPRPKKEPRP | 0.0316 |
| RRIRIRPPRLPRPRPRPHIKPRP | -1.12 |
| RRIRARPPRLPRPRPRPRPCPRP | 0.426 |
| RRIRGRPPRLPRPRPRPLVIPRP | 0.187 |
| RRIRLRPPRLPRPRPRPWWNPRP | -0.426 |
| RRIRVRPPRLPRPRPRPTQKPRP | 0.837 |
| RRIRIRPPRLPRPRPRPCQRPRP | -0.268 |
| RRIRMRPPRLPRPRPRPKDLPRP | 0.153 |
